± gives the uncertainty stated by the source.

The series in a line: self-splicing fitness, log relative to wild type (ln ratio); higher = more splicing; Tetrahymena group I intron in knt gene, E. coli kanamycin selection, DiMSum; sequences stand for … in CUCUCU…GGAGGGAAAAGUUAUCAGGCAUGCACCUGGUAGCUAGUCUUUAAACCAAUAGAUUGCAUCGGUUUAAAAGGCAAGACCGUCAAAUUGCGGGAAAGGGGUCAACAGCCGUUCAGUACCAAGUCUCAGGGGAAACUUUGAGAUGGCCUUGCAAAGGGUAUGGUAAUAAGCUGACGGACAUGGUCCUAACCACGCAGCCAAGUCCUAAGUCAACAGAUCUUCUGUUGAUAUGGAUGCAGUUCACAGACUAAAUGUCGGUCGGGGAAGAUGUAUUCUUCUCAUAAGAUAUAGUCGGACCUCUCCUUAAUGGGAGCUAGCGGAUGAAGUGAUGCAACACUGGAGCCGCUGGGAACUAAUUUGUAUGCGAAAGUAUAUUGAUUAGUUUUGGAGUACUCGUGGUCG
In short, it runs like this: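 Colonies from six replicate transformations of E. coli BL21(DE3) were pooled and amplicon-sequenced on an Illumina HiSeq 2500. The library placed an intron with all eight P1ex-region nucleotides randomised inside the knt kanamycin-resistance gene on pET-22b(+), and cells grew overnight at 37°C or 30°C on LB agar with or without 25 μg/mL kanamycin (plus 100 μg/mL carbenicillin, 50 μM IPTG, 0.2% rhamnose). Fitness is the DiMSum error-weighted combination of wild-type-normalised replicate fold changes, kanamycin versus none.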

As for AGCUAGCAAUAUUACGUGUC, the “self-splicing fitness (ln)” value reads like this: (30 °C) -3.35 ± 0.18; (37 °C) -1.63 ± 0.14. For the sequence GUUGAGCAAUAUUACGUAUU, under “30 °C”, the “self-splicing fitness (ln)” value was -3.74 ± 0.47. For GUUGAGCAAUAUUACGGCCA, the “self-splicing fitness (ln)” value (37 °C) is -0.675 ± 0.24.

On to AGCAAGCAAUAUUACGCGUA, for which the “self-splicing fitness (ln)” value reads like this: (30 °C) -1.83 ± 0.083; (37 °C) -0.167 ± 0.085. On the same counts, the results for CGUUAGCAAUAUUACGGACG are -4.39 ± 0.36 and -2.23 ± 0.25. For CUCAAGCAAUAUUACGGCUG, the “self-splicing fitness (ln)” value runs as follows: (30 °C) -3.41 ± 0.26; (37 °C) -2.57 ± 0.27. For the sequence UUACAGCAAUAUUACGCAAG, the “self-splicing fitness (ln)” value was -1.73 ± 0.1 (30 °C) and -0.345 ± 0.12 (37 °C).

Regarding AAGUAGCAAUAUUACGCUUG, the “self-splicing fitness (ln)” value (30 °C) is -1.6 ± 0.097 and the “self-splicing fitness (ln)” value (37 °C) was -0.42 ± 0.1.

As to UAUGAGCAAUAUUACGCUUA, the “self-splicing fitness (ln)” value by setting is: (30 °C) -3.19 ± 0.41; (37 °C) -1.47 ± 0.26. Taken in the same sequence, the figures for CAUGAGCAAUAUUACGCAAG were -3.15 ± 0.13 and -1.69 ± 0.12.

As for CUGUAGCAAUAUUACGGUAC, the “self-splicing fitness (ln)” value (37 °C) was -2.59 ± 0.28.

Consider CCGGAGCAAUAUUACGCUCG, for which the “self-splicing fitness (ln)” value (30 °C) was -3.16 ± 0.28. For CCAGAGCAAUAUUACGCGUA, the “self-splicing fitness (ln)” value is -1.99 ± 0.19 (30 °C) and -4.46 ± 0.38 (37 °C).

Consider UCAUAGCAAUAUUACGACAC, for which the “self-splicing fitness (ln)” value (37 °C) was -2.64 ± 0.29. For AGCGAGCAAUAUUACGACAC, the “self-splicing fitness (ln)” value (30 °C) was -1.34 ± 0.34. CUAAAGCAAUAUUACGUUCG: the “self-splicing fitness (ln)” value turned out to be 0.342 ± 0.064 (30 °C) and 0.478 ± 0.082 (37 °C). On the same counts, the results for AAACAGCAAUAUUACGGACA are -1.54 ± 0.092 and -1.1 ± 0.096. As for GUGCAGCAAUAUUACGAGUA, the “self-splicing fitness (ln)” value is -2.62 ± 0.34 (30 °C) and -1.8 ± 0.21 (37 °C). Taken in the same sequence, the figures for GUCUAGCAAUAUUACGGUCA were -0.592 ± 0.11 and -0.44 ± 0.12. Taken in the same sequence, the figures for CGUAAGCAAUAUUACGUAAU were -3.23 ± 0.16 and -2.64 ± 0.18. For the sequence AGGAAGCAAUAUUACGGUCA, the “self-splicing fitness (ln)” value was -0.983 ± 0.086 (30 °C) and 0.202 ± 0.091 (37 °C). As for GCUGAGCAAUAUUACGCAUA, the “self-splicing fitness (ln)” value by setting is: (30 °C) -3.37 ± 0.3; (37 °C) -1.82 ± 0.17. As to AUUUAGCAAUAUUACGGUAA, the “self-splicing fitness (ln)” value reads like this: (30 °C) -1.59 ± 0.17; (37 °C) -1.54 ± 0.17. On the same counts, the results for UGGGAGCAAUAUUACGCGAG are -1.25 ± 0.19 and -2.26 ± 0.27. Taken in the same sequence, the figures for GUCUAGCAAUAUUACGUACG were -1.29 ± 0.12 and -0.709 ± 0.12.

With UCUUAGCAAUAUUACGGAUU, the “self-splicing fitness (ln)” value is -2.71 ± 0.41 (30 °C) and -2.22 ± 0.21 (37 °C). Consider ACAGAGCAAUAUUACGCGGC, for which the “self-splicing fitness (ln)” value by setting is: (30 °C) -3.41 ± 0.3; (37 °C) -2.18 ± 0.37. Consider GCGAAGCAAUAUUACGGUAG, for which the “self-splicing fitness (ln)” value was -4.07 ± 0.42 (30 °C) and -2.77 ± 0.26 (37 °C). On the same counts, the results for AAAGAGCAAUAUUACGAGUU are -3 ± 0.17 and -1.92 ± 0.2. For GCCAAGCAAUAUUACGGCAC, the “self-splicing fitness (ln)” value is -2.04 ± 0.12 (30 °C) and -0.268 ± 0.12 (37 °C). Consider UAAGAGCAAUAUUACGCAAU, for which the “self-splicing fitness (ln)” value runs as follows: (30 °C) -3.35 ± 0.31; (37 °C) -2.32 ± 0.27. In the case of GACAAGCAAUAUUACGACGA, the “self-splicing fitness (ln)” value reads like this: (30 °C) -0.615 ± 0.067; (37 °C) 0.296 ± 0.095. For the sequence UUCAAGCAAUAUUACGAAAC, the “self-splicing fitness (ln)” value (30 °C) was -2.77 ± 0.31 and the “self-splicing fitness (ln)” value (37 °C) was -2.89 ± 0.35. Taken in the same sequence, the figures for UACCAGCAAUAUUACGUGUG were -1.22 ± 0.046 and -0.527 ± 0.059. With AUAUAGCAAUAUUACGCGCA, the “self-splicing fitness (ln)” value (30 °C) was -0.342 ± 0.15 and the “self-splicing fitness (ln)” value (37 °C) is -0.724 ± 0.14. For ACUCAGCAAUAUUACGUCUU, the “self-splicing fitness (ln)” value is, setting by setting: (30 °C) -0.765 ± 0.046; (37 °C) 0.0108 ± 0.062. In the case of AGACAGCAAUAUUACGUGAC, the “self-splicing fitness (ln)” value is -2.89 ± 0.15 (30 °C) and -1.42 ± 0.13 (37 °C). Take AUGGAGCAAUAUUACGAGCU: the “self-splicing fitness (ln)” value (30 °C) is -3.12 ± 0.27 and the “self-splicing fitness (ln)” value (37 °C) was -2.17 ± 0.37.

On to GAAUAGCAAUAUUACGACAG, for which the “self-splicing fitness (ln)” value was -3.2 ± 0.28 (30 °C) and -2.62 ± 0.35 (37 °C). Taken in the same sequence, the figures for AGGAAGCAAUAUUACGACAC were -1.94 ± 0.12 and -1.74 ± 0.12.

Values taken from the supplement of paper PMC7877785.
